Data published in publication PMC7822592, “The half-life of the bone-derived hormone osteocalcin is regulated through O-glycosylation in mice, but not in humans” (eLife, 2020).
No end group written: not given here.

Key:
[1] = In vivo half-life assay, serum OCN after intraperitoneal injection in Bglap-/- mice; parameters: species or system mouse; conditions: for serum OCN / in vivo half-life / % OCN from initial (relative to maximum at 30 min) / % OCN from initial, mean used for 1/2 life: 40 ng/g i.p.; for serum OCN: ELISA; for in vivo half-life: estimated from declining phase after maximum at 30 min, serum ELISA; for % OCN from initial (relative to maximum at 30 min) / % OCN from initial, mean used for 1/2 life: serum, fasted Bglap-/- mice
Procedure: For in vivo half-life assay, Bglap-/- male mice were injected intraperitoneally with 40 or 80 ng/g of body weight of mouse O-glycosylated ucOCN or non-glycosylated ucOCN, serum OCN level was analyzed at indicated time points using total mouse OCN ELISA. In all ex vivo and in vivo studies, mouse or human proteins were prepared in saline solution (0.9% NaCl) containing BSA (35 mg/ml) as a carrier.

[2] = test system: INS-1 832/3 cells; experiment: OCN stability in INS-1 832/3 cell culture media; type: in vitro ADME, rat; conditions: 8 hours with INS-1 cells at 37°C, ELISA
Procedure: The INS-1 832/3 rat insulinoma cell line (Millipore-Sigma) was cultured in RPMI-1640 with 11.1 mM D-glucose, supplemented with 2 mM L-glutamine, 1 mM sodium pyruvate, 10 mM HEPES, 0.05 mM β-mercaptoethanol and 10% FBS ([Hohmeier et al., 2000]). On day 1, cells were plated at 3 × 10^5 cells per well in 12-well plates and on day 5, cells were washed with PBS and incubated with culture media containing 5 mM D-glucose. Twenty-four hours later, cells were washed with PBS and incubated for 4 hr in culture media containing 1% FBS, 5 mM D-glucose and 0.1% BSA. OCN was added for 8 hr before supernatants and cells were harvested. ucOCN and O-gly ucOCN concentration were measured in supernatants by ELISA and cells were lyzed and RNA extracted as described in the material and methods section. Gene expression was analyzed using rat specific primers for Ins1 and Gapdh.

ucOCN: Non-glycosylated uncarboxylated mouse osteocalcin produced in bacteria (YLGASVPSPDPLEPTREQCELNPACDELSDQYGLKTAYKRIYGITI; ends and bridges not checked; cysteine pairing not given here; UniProt P86546 50-95, looked up)
serum OCN ([1]; Bglap-/- male mice fasted 16 hr, 15 min, mouse 1): 21.6 ng/mL
serum OCN ([1]; Bglap-/- male mice fasted 16 hr, 15 min, mouse 2): 16.5 ng/mL
serum OCN ([1]; Bglap-/- male mice fasted 16 hr, 15 min, mouse 3): 22.3 ng/mL
serum OCN ([1]; Bglap-/- male mice fasted 16 hr, 15 min, mouse 4): 21.8 ng/mL
serum OCN ([1]; Bglap-/- male mice fasted 16 hr, 30 min, mouse 1): 29.0 ng/mL
serum OCN ([1]; Bglap-/- male mice fasted 16 hr, 30 min, mouse 2): 18.8 ng/mL
serum OCN ([1]; Bglap-/- male mice fasted 16 hr, 30 min, mouse 3): 19.1 ng/mL
serum OCN ([1]; Bglap-/- male mice fasted 16 hr, 30 min, mouse 4): 16.7 ng/mL
serum OCN ([1]; Bglap-/- male mice fasted 16 hr, 60 min, mouse 1): 21.9 ng/mL
serum OCN ([1]; Bglap-/- male mice fasted 16 hr, 60 min, mouse 2): 14.4 ng/mL
serum OCN ([1]; Bglap-/- male mice fasted 16 hr, 60 min, mouse 3): 15.0 ng/mL
serum OCN ([1]; Bglap-/- male mice fasted 16 hr, 60 min, mouse 4): 14.8 ng/mL
serum OCN ([1]; Bglap-/- male mice fasted 16 hr, 90 min, mouse 1): 15.6 ng/mL
serum OCN ([1]; Bglap-/- male mice fasted 16 hr, 90 min, mouse 2): 12.2 ng/mL
serum OCN ([1]; Bglap-/- male mice fasted 16 hr, 90 min, mouse 3): 12.9 ng/mL
serum OCN ([1]; Bglap-/- male mice fasted 16 hr, 90 min, mouse 4): 13.2 ng/mL
serum OCN ([1]; Bglap-/- male mice fasted 16 hr, 120 min, mouse 1): 11.8 ng/mL
serum OCN ([1]; Bglap-/- male mice fasted 16 hr, 120 min, mouse 2): 10.3 ng/mL
serum OCN ([1]; Bglap-/- male mice fasted 16 hr, 120 min, mouse 3): 10.8 ng/mL
serum OCN ([1]; Bglap-/- male mice fasted 16 hr, 120 min, mouse 4): 12.0 ng/mL
in vivo half-life ([1]; Bglap-/- male mice fasted 16 hr): 108 min
in vivo half-life ([1]; Bglap-/- male mice fasted 16 hr, listed as non-glycosylated ucOCN): ~ 108 min
serum OCN ([1]; fed Bglap-/- male mice, 15 min, mouse 1): 39.8 ng/mL
serum OCN ([1]; fed Bglap-/- male mice, 15 min, mouse 2): 45.5 ng/mL
serum OCN ([1]; fed Bglap-/- male mice, 15 min, mouse 3): 45.6 ng/mL
serum OCN ([1]; fed Bglap-/- male mice, 15 min, mouse 4): 45.1 ng/mL
serum OCN ([1]; fed Bglap-/- male mice, 15 min, mouse 5): 35.2 ng/mL
serum OCN ([1]; fed Bglap-/- male mice, 15 min, mouse 6): 29.7 ng/mL
serum OCN ([1]; fed Bglap-/- male mice, 15 min, mouse 7): 14.2 ng/mL
serum OCN ([1]; fed Bglap-/- male mice, 15 min, mouse 8): 30.7 ng/mL
serum OCN ([1]; fed Bglap-/- male mice, 15 min, mouse 9): 21.4 ng/mL
serum OCN ([1]; fed Bglap-/- male mice, 30 min, mouse 1): 67.5 ng/mL
serum OCN ([1]; fed Bglap-/- male mice, 30 min, mouse 2): 58.2 ng/mL
serum OCN ([1]; fed Bglap-/- male mice, 30 min, mouse 3): 51.8 ng/mL
serum OCN ([1]; fed Bglap-/- male mice, 30 min, mouse 4): 52.9 ng/mL
serum OCN ([1]; fed Bglap-/- male mice, 30 min, mouse 5): 43.5 ng/mL
serum OCN ([1]; fed Bglap-/- male mice, 30 min, mouse 6): 27.8 ng/mL
serum OCN ([1]; fed Bglap-/- male mice, 30 min, mouse 7): 13.8 ng/mL
serum OCN ([1]; fed Bglap-/- male mice, 30 min, mouse 8): 34.7 ng/mL
serum OCN ([1]; fed Bglap-/- male mice, 30 min, mouse 9): 14.9 ng/mL
serum OCN ([1]; fed Bglap-/- male mice, 60 min, mouse 1): 46.1 ng/mL
serum OCN ([1]; fed Bglap-/- male mice, 60 min, mouse 2): 20.7 ng/mL
serum OCN ([1]; fed Bglap-/- male mice, 60 min, mouse 3): 25.4 ng/mL
serum OCN ([1]; fed Bglap-/- male mice, 60 min, mouse 4): 25.6 ng/mL
serum OCN ([1]; fed Bglap-/- male mice, 60 min, mouse 5): 15.8 ng/mL
serum OCN ([1]; fed Bglap-/- male mice, 60 min, mouse 6): 8.8 ng/mL
serum OCN ([1]; fed Bglap-/- male mice, 60 min, mouse 7): 7.2 ng/mL
serum OCN ([1]; fed Bglap-/- male mice, 60 min, mouse 8): 10.7 ng/mL
serum OCN ([1]; fed Bglap-/- male mice, 60 min, mouse 9): 5.7 ng/mL
serum OCN ([1]; fed Bglap-/- male mice, 90 min, mouse 1): 16.3 ng/mL
serum OCN ([1]; fed Bglap-/- male mice, 90 min, mouse 2): 7.1 ng/mL
serum OCN ([1]; fed Bglap-/- male mice, 90 min, mouse 3): 9.0 ng/mL
serum OCN ([1]; fed Bglap-/- male mice, 90 min, mouse 4): 10.0 ng/mL
serum OCN ([1]; fed Bglap-/- male mice, 90 min, mouse 5): 6.0 ng/mL
serum OCN ([1]; fed Bglap-/- male mice, 90 min, mouse 6): 4.4 ng/mL
serum OCN ([1]; fed Bglap-/- male mice, 90 min, mouse 7): 4.7 ng/mL
serum OCN ([1]; fed Bglap-/- male mice, 90 min, mouse 8): 5.4 ng/mL
serum OCN ([1]; fed Bglap-/- male mice, 90 min, mouse 9): 4.0 ng/mL
serum OCN ([1]; fed Bglap-/- male mice, 120 min, mouse 1): 8.1 ng/mL
serum OCN ([1]; fed Bglap-/- male mice, 120 min, mouse 2): 4.4 ng/mL
serum OCN ([1]; fed Bglap-/- male mice, 120 min, mouse 3): 5.4 ng/mL
serum OCN ([1]; fed Bglap-/- male mice, 120 min, mouse 4): 6.0 ng/mL
serum OCN ([1]; fed Bglap-/- male mice, 120 min, mouse 5): 4.2 ng/mL
serum OCN ([1]; fed Bglap-/- male mice, 120 min, mouse 6): 3.7 ng/mL
serum OCN ([1]; fed Bglap-/- male mice, 120 min, mouse 7): 3.8 ng/mL
serum OCN ([1]; fed Bglap-/- male mice, 120 min, mouse 8): 4.1 ng/mL
serum OCN ([1]; fed Bglap-/- male mice, 120 min, mouse 9): 3.6 ng/mL
serum OCN ([1]; fed Bglap-/- male mice, 180 min, mouse 1): 1.9 ng/mL
serum OCN ([1]; fed Bglap-/- male mice, 180 min, mouse 2): 2.1 ng/mL
serum OCN ([1]; fed Bglap-/- male mice, 180 min, mouse 3): 1.8 ng/mL
serum OCN ([1]; fed Bglap-/- male mice, 180 min, mouse 4): 1.6 ng/mL
serum OCN ([1]; fed Bglap-/- male mice, 180 min, mouse 5): 3.4 ng/mL
serum OCN ([1]; fed Bglap-/- male mice, 180 min, mouse 6): 3.4 ng/mL
serum OCN ([1]; fed Bglap-/- male mice, 180 min, mouse 7): 3.4 ng/mL
serum OCN ([1]; fed Bglap-/- male mice, 180 min, mouse 8): 3.6 ng/mL
serum OCN ([1]; fed Bglap-/- male mice, 180 min, mouse 9): 3.4 ng/mL
Serum OCN at 120 minutes ([1]; fed Bglap-/- male mice, dose 40 ng/g i.p., mouse 1): 8.1 ng/mL
Serum OCN at 120 minutes ([1]; fed Bglap-/- male mice, dose 40 ng/g i.p., mouse 2): 4.4 ng/mL
Serum OCN at 120 minutes ([1]; fed Bglap-/- male mice, dose 40 ng/g i.p., mouse 3): 5.4 ng/mL
Serum OCN at 120 minutes ([1]; fed Bglap-/- male mice, dose 40 ng/g i.p., mouse 4): 6 ng/mL
Serum OCN at 120 minutes ([1]; fed Bglap-/- male mice, dose 80 ng/g i.p., mouse 1): 6.9 ng/mL
Serum OCN at 120 minutes ([1]; fed Bglap-/- male mice, dose 80 ng/g i.p., mouse 2): 5.7 ng/mL
Serum OCN at 120 minutes ([1]; fed Bglap-/- male mice, dose 80 ng/g i.p., mouse 3): 13 ng/mL
% OCN from initial (relative to maximum at 30 min) ([1]; 30 min, mouse 1): 100.0%
% OCN from initial (relative to maximum at 30 min) ([1]; 30 min, mouse 2): 100.0%
% OCN from initial (relative to maximum at 30 min) ([1]; 30 min, mouse 3): 100.0%
% OCN from initial (relative to maximum at 30 min) ([1]; 30 min, mouse 4): 100.0%
% OCN from initial (relative to maximum at 30 min) ([1]; 60 min, mouse 1): 75.4%
% OCN from initial (relative to maximum at 30 min) ([1]; 60 min, mouse 2): 76.8%
% OCN from initial (relative to maximum at 30 min) ([1]; 60 min, mouse 3): 78.6%
% OCN from initial (relative to maximum at 30 min) ([1]; 60 min, mouse 4): 88.7%
% OCN from initial (relative to maximum at 30 min) ([1]; 90 min, mouse 1): 53.9%
% OCN from initial (relative to maximum at 30 min) ([1]; 90 min, mouse 2): 65.1%
% OCN from initial (relative to maximum at 30 min) ([1]; 90 min, mouse 3): 67.6%
% OCN from initial (relative to maximum at 30 min) ([1]; 90 min, mouse 4): 78.8%
% OCN from initial (relative to maximum at 30 min) ([1]; 120 min, mouse 1): 40.6%
% OCN from initial (relative to maximum at 30 min) ([1]; 120 min, mouse 2): 54.6%
% OCN from initial (relative to maximum at 30 min) ([1]; 120 min, mouse 3): 56.7%
% OCN from initial (relative to maximum at 30 min) ([1]; 120 min, mouse 4): 71.4%
% OCN from initial, mean used for 1/2 life ([1]; time 0 min of declining phase): 100.0%
% OCN from initial, mean used for 1/2 life ([1]; time 30 min of declining phase): 79.9%
% OCN from initial, mean used for 1/2 life ([1]; time 60 min of declining phase): 66.3%
% OCN from initial, mean used for 1/2 life ([1]; time 90 min of declining phase): 55.8%
OCN in stimulation media ([2]; replicate 1): 0.037 ng/mL
OCN in stimulation media ([2]; replicate 2): 0.028 ng/mL
OCN in stimulation media ([2]; replicate 3): 0.03 ng/mL
